Results taken from patent publication US20240342298A1, “METHODS OF TREATING TUMORS BY USING MOLECULAR CONSTRUCT” (Immunwork Inc., priority 2023, published 2024).

Assays:
MM.1S cells = experiment: alamarBlue cell viability assay, MM.1S cells; type: cell-based, human; details: even at doses >20 μM
Protocol: (§1) Briefly, H929, U266-CD38^−, MM.1S, and Daudi cells were seeded at 5,000 cells/well in 96-well plates and co-cultured with fresh medium containing different test articles with the indicated concentrations at 37° C. for 5 hours, 1 day, 3 days, or 5 days. The viabilities of the cells were determined by alamarBlue™ cell viability reagent. About 10 μl alamarBlue™ cell viability reagent was added to the cells with a final concentration of 10% v/v, followed by incubating at 37° C. for 1.5 hours. The fluorescence was measured on a microplate reader in arbitrary fluorescent units following excitation at 560 nm and emission at 590 nm.
(§2) H929 cells were incubated for 5 hours, 1 day, 3 days, or 5 days (FIGS. 12A-12D), and MM.1S, U266-CD38-, and Daudi cells were incubated for 5 days (FIGS. 12E-12G). Then, cell viability was determined.

U266-CD38- cells = experiment: alamarBlue cell viability assay, U266-CD38- cells; type: cell-based; details: 5 days, FIG. 12F
Protocol: as §1, §2

H929 cells = experiment: alamarBlue cell viability assay, H929 cells; type: cell-based, human; details: even at doses >20 μM
Protocol: as §1, §2

human CD38 = target: T1, human CD38 (Homo sapiens, UniProt P28907); experiment: cell-based ELISA binding to human CD38-overexpressing 293T cells
T1 construct: The cDNA of full-length human CD38 was cloned into pCDH-CMV-MCS-Ef1α-Puro expression vector; expressed in transfected cells; host or cells: HEK293T (lentiviral transduction with pCDH-CMV-CD38, puromycin selection)
Protocol: The cDNA of full-length human CD38 was cloned into pCDH-CMV-MCS-Ef1α-Puro expression vector to generate lentiviral-based CD38-expressing plasmid, pCDH-CMV-CD38. Lentivirus was packaged by co-transfecting pCDH-CMV-CD38, pCMV-VSV-G, and pCMV8R8.91 into HEK293T cells. Human CD38-overexpressing HEK293T cells were transduced with lentivirus infection and cultured with 1 μg/mL puromycin three days post-infection.

B1: 2-chain (anti-CD38 scFv)-hIgG1.Fc-(Gly)3-BM fusion protein: dimer of (anti-CD38 scFv)-hIgG1.Fc-(Gly)3-BM, SEQ ID NO: 12; scFv VL and VH derived from daratumumab (protein)
chain: EIVLTQSPATLSLSPGERATLSCRASQSVSSYLAWYQQKPGQAPRLLIYDASNRATGIPARFSGSGSGTDFTLTISSLEPEDFAVYYCQQRSNWPPTFGQGTKVEIKGSTSGSGKPGSGEGSTKGEVQLLESGGGLVQPGGSLRLSCAVSGFTFNSFAMSWVRQAPGKGLEWVSAISGSGGGTYYADSVKGRFTISRDNSKNTLYLQMNSLRAEDTAVYFCAKDKILWFGEPVFDYWGQGTLVTVSSGGGASDKTHTCPPCPAPELLGGPSVFLFPPKPKDTLMISRTPEVTCVVVDVSHEDPEVKFNWYVDGVEVHNAKTKPREEQYNSTYRVVSVLTVLHQDWLNGKDYKCKVSNKALPAPIEKTISKAKGQPREPQVYTLPPSRDELTRNQVSLTCLVKGFYPSDIAVEWESNGQPENNYKTTPPVLDSDGSFFLYSKLTVDKSRWQQGNVFSCSVMHEALHNHYTQKSLSLSPGGGGACPGHA
modifications: homodimer
notes: scFv VL and VH derived from daratumumab
Question: How did the “effect of cell death” value (MM.1S cells) turn out when B1 was run?
Answer: no effect of cell death

Question: What about the killing effect (U266-CD38- cells) of the same molecule?
Answer: did not possess any killing effect

Question: What about the “effect of cell death” value (H929 cells) of the same molecule?
Answer: no effect of cell death

Question: What about the EC50 (human CD38) of the same molecule?
Answer: 0.84 nM
